Test results taken from patent publication US20240239894A1, “THERAPEUTIC BINDING MOLECULES” (MedImmune Limited, priority 2020, published 2024).

How the values were obtained:
HCC1954 tumour xenograft = test: gamma H2AX immunohistochemistry in tumour xenograft; assay type: in vivo; conditions: up to 10 days following treatment
Procedure: Tumour xenograft models were generated (using HCC1954 cells), and treated with E02-GL-SG3249. “E02-GL” antibody has the CDR/VH sequences (e.g. corresponds to) of ZY0EQD-E02 (“GL” means the antibody has been germlined).
Immunohistochemistry was then performed to determine gamma H2AX (marker of double strand breaks) following treatment.

[1] = system: non-transfected HEK293 cells; test: In vitro cytotoxicity; assay type: cell-based
Description: The clone E02-GL was conjugated to the cytotoxin SG3249 (providing E02-GL-SG3249), and tested for the ability to target and kill both cynomolgus B7-H4 transfected and non-transfected B7-H4 cells. For convenience, the antibody tested in this example comprised the Maia heavy chain backbone (e.g. having a cysteine insertion providing an additional site to which SG3249 can conjugate, see SEQ ID NO: 48) was used. No loss of efficacy occurs where other heavy chain backbones (e.g. lacking such cysteine insertion, for example see SEQ ID NO: 52) is used. The antibody R347 conjugated to SG3249 was used as a control.

Toxicology study = assay type: in vivo; conditions: male cynomolgus monkeys, N=2/dose level
Procedure: E02-GL-SG3249 was administered to male cynomolgus monkeys (N═2/dose level). The “E02-GL” antibody has the CDR/VH sequences (e.g. corresponds to) of ZY0EQD-E02 (“GL” means the antibody has been germlined).

[2] = system: HT29 WT (not expressing B7-H4); test: Bystander killing in vitro (conditioned medium); assay type: cell-based, human; conditions: donor cells treated 4 days
Procedure: HT29 B7-H4 expressing cells were treated with E02-GL-SG3249 for 4 days, after which the conditioned medium was removed and added to HT29 WT (i.e. not expressing B7-H4).

HBCx-10 = test: PDX model; assay type: in vivo; conditions: HBCx-10, Breast (Triple negative); 0.3 mg/kg vs vehicle
Description: (§1) Patient derived xenograft models were generated using cancer cell lines with varying levels of B7-H4 expression, as outlined in Table 16. […] “E02-GL” antibody has the CDR/VH sequences (e.g. corresponds to) of ZY0EQD-E02 (“GL” means the antibody has been germlined).

T272 = test: PDX model; assay type: in vivo; conditions: T272, Breast (HR+); 0.3 mg/kg vs vehicle
Description: as §1

T330 = test: PDX model; assay type: in vivo; conditions: T330, Breast (Triple negative); 0.3 mg/kg vs vehicle
Description: as §1

CTG-012 = test: PDX model; assay type: in vivo; conditions: CTG-012, Breast (Triple negative); 0.3 mg/kg vs vehicle
Description: as §1

HBCx-9 = test: PDX model; assay type: in vivo; conditions: HBCx-9, Breast (Triple negative); 0.3 mg/kg vs vehicle
Description: as §1

CTG-1106 = test: PDX model; assay type: in vivo; conditions: CTG-1106, Breast (Triple negative); 0.3 mg/kg vs vehicle
Description: as §1

HBCx-11 = test: PDX model; assay type: in vivo; conditions: HBCx-11, Breast (Triple negative); 0.3 mg/kg vs vehicle
Description: as §1

T168 = test: PDX model; assay type: in vivo; conditions: T168, Breast (HR+); 0.3 mg/kg vs vehicle
Description: as §1

CTG-052 = test: PDX model; assay type: in vivo; conditions: CTG-052, Breast (Triple negative); 0.3 mg/kg vs vehicle
Description: as §1

CTG-1086 = test: PDX model; assay type: in vivo; conditions: CTG-1086, Ovarian; 0.3 mg/kg vs vehicle
Description: as §1

CTG-0992 = test: PDX model; assay type: in vivo; conditions: CTG-0992, Ovarian; 0.3 mg/kg vs vehicle
Description: as §1

HCC1569 = test: E02-GL MESF on cell line; assay type: cell-based
HT29-huB7-H4 Clone 26 = test: Live cell imaging internalization; assay type: cell-based, human; conditions: 5 μg/mL Alexa Fluor 568 conjugate
Procedure: (§2) The internalization and intracellular trafficking properties of antibody E02-INT was evaluated using a quantitative live cell imaging assay in MX-1 human breast cancer cells and HT29 huB7-H4 Clone 26 human colon cancer cells overexpressing B7-H4.

MX-1 = test: Live cell imaging internalization; assay type: cell-based, human; conditions: 5 μg/mL Alexa Fluor 568 conjugate
Procedure: as §2

HT29 hB7H4 clone 44 = test: E02-GL MESF on cell line; assay type: cell-based, human
HT29 = test: E02-GL MESF on cell line; assay type: cell-based, human; conditions: HT29, B7-H4 negative
HT29 hB7H4 clone 26 = test: E02-GL MESF on cell line; assay type: cell-based, human
HCC1954 = test: E02-GL MESF on cell line; assay type: cell-based
[3] = system: HT29-huB7-H4 Clone 26 cells; test: Confocal colocalization with LAMP1 and EEA1; assay type: cell-based, human; conditions: 24 hours, 5 μg/mL
Description: Confocal microscopy was used to determine intracellular trafficking of E02-INT by measuring co-localization with the early endosomal marker, Early Endosome Antigen 1 (EEA1) and the lysosomal marker, lysosomal-associated membrane protein 1 (LAMP1).

MX-1 cells = test: Flow cytometry binding; assay type: cell-based, human; conditions: endogenously-expressed B7-H4
Description: (§3) Flow cytometry was used to measure binding of antibody E02-INT and E02-GL-SG3932 to the human breast cancer cell lines MX-1 and MDA-MB-468, and to engineered HT29 colon cancer cells stably expressing human B7-H4.

MDA-MB-468 cells = test: Flow cytometry binding; assay type: cell-based, human; conditions: endogenously-expressed B7-H4
Description: as §3

[4] = system: HT29-huB7-H4 Clone 4 and HT29-huB7-H4 Clone 26; test: Flow cytometry binding; assay type: cell-based, human
Description: as §3

B1: E02-GL-SG3249: clone E02-GL (Maia heavy chain backbone) conjugated to the PBD cytotoxin SG3249 (conjugate)
heavy: QVQLQQWGAGLLKPSETLSLACTVYGGSFSGYYWNWIRQPPGKGLEWIGEINHSGSTSYNPSLKSRVTISVDTSKNQFSLKLSSVTAADTAVYYCARVLYNWNVDSWGQGTLVTVSSASTKGPSVFPLAPSSKSTSGGTAALGCLVKDYFPEPVTVSWNSGALTSGVHTFPAVLQSSGLYSLSSVVTVPSSSLGTQTYICNVNHKPSNTKVDKRVEPKSCDKTHTCPPCPAPELLGGPSCVFLFPPKPKDTLMISRTPEVTCVVVDVSHEDPEVKFNWYVDGVEVHNAKTKPREEQYNSTYRVVSVLTVLHQDWLNGKEYKCKVSNKALPAPIEKTISKAKGQPREPQVYTLPPSREEMTKNQVSLTCLVKGFYPSDIAVEWESNGQPENNYKTTPPVLDSDGSFFLYSKLTVDKSRWQQGNVFSCSVMHEALHNHYTQKSLSLSPGK
light: DIQMTQSPSSLSASVGDRVTITCRASQDIRNDVGWYQQKPGKAPKRLIYAASRLQSGVPSRFSGSGSGTEFTLTISSLQPEDFATYYCLQHNSYPRTFGQGTKVEIKRTVAAPSVFIFPPSDEQLKSGTASVVCLLNNFYPREAKVQWKVDNALQSGNSQESVTEQDSKDSTYSLSSTLTLSKADYEKHKVYACEVTHQGLSSPVTKSFNRGEC
In the case of B1, the “gamma H2AX positive tumour cells” value (HCC1954 tumour xenograft) is reported as “Increased numbers of gamma H2AX positive tumour cells”, the cell killing [1] is reported as “No significant killing” and the toxicities (Toxicology study) is reported as “No abnormal toxicities”. For the same molecule, the “viability of HT29 WT after conditioned medium from treated HT29 B7-H4 expressing cells” value [2] was “rapid decrease in cell viability”, the “% Tumour Growth Inhibition (TGI)” value (HBCx-10) was 90% and the “% Tumour Growth Inhibition (TGI)” value (T272) was 30%. For the same molecule, the “% Tumour Growth Inhibition (TGI)” value (T330) was 70%, the “% Tumour Growth Inhibition (TGI)” value (CTG-012) was 90% and the “% Tumour Growth Inhibition (TGI)” value (HBCx-9) was 70%. The “% Tumour Growth Inhibition (TGI)” value (CTG-1106) was 30%, the “% Tumour Growth Inhibition (TGI)” value (HBCx-11) was 80% and the “% Tumour Growth Inhibition (TGI)” value (T168) was 60%. The “% Tumour Growth Inhibition (TGI)” value (CTG-052) was 30%, the “% Tumour Growth Inhibition (TGI)” value (CTG-1086) was 20% and the “% Tumour Growth Inhibition (TGI)” value (CTG-0992) was 0%.

B2: E02-GL: germlined ZY0EQD-E02, VH SEQ ID NO: 45, VL SEQ ID NO: 34; antibody intermediate of E02-GL-SG3932 (antibody, V domains shown)
VH: QVQLQQWGAGLLKPSETLSLACTVYGGSFSGYYWNWIRQPPGKGLEWIGEINHSGSTSYNPSLKSRVTISVDTSKNQFSLKLSSVTAADTAVYYCARVLYNWNVDSWGQGTLVTVSS
VL: DIQMTQSPSSLSASVGDRVTITCRASQDIRNDVGWYQQKPGKAPKRLIYAASRLQSGVPSRFSGSGSGTEFTLTISSLQPEDFATYYCLQHNSYPRTFGQGTKVEIK
For B2, the “E02-GL MESF” value (HCC1569) was 112,608 MESF, the internalization half-life (HT29-huB7-H4 Clone 26) was 127 (±35 SD) minutes and the internalization half-life (MX-1) was 102 (±18 SD) minutes. The “E02-GL MESF” value (HT29 hB7H4 clone 44) was 147,125 MESF, the “E02-GL MESF” value (HT29) was 2,101 MESF and the “E02-GL MESF” value (HT29 hB7H4 clone 26) was 429,398 MESF. The “E02-GL MESF” value (HCC1954) was 47,173 MESF, the “intracellular trafficking after internalization” value [3] was “trafficked to the lysosomal compartment” and the cellular binding (MX-1 cells) was “bound”. The cellular binding (MDA-MB-468 cells) was “bound” and the cellular binding [4] was “bound similarly”.
